Laboratory results from patent US20240166742A1, “MOLECULES THAT BIND TO AND STABILIZE TRIGGERING RECEPTOR EXPRESSED ON MYELOID CELLS 2 (TREM2)” (Novartis AG, priority 2015, published 2024).
[NapdU] = code of the source, not defined here

What was measured:
[1] = target: T1, cell surface human TREM2 on CHO-hTREM2 cells (Homo sapiens, UniProt Q9NZC2); assay: TREM2 surface stabilization by SOMAmers on CHO-hTREM2 cells (flow cytometry); assay type: cell-based; settings: 37° C. for 3 hours
T1 construct: expressed in transfected cells; host or cells: CHO cells, stably double transfected (G418 / hygromycin)
Procedure: A HEK cell line stably expressing a chimeric receptor consisting of TREM2-extracellular domain and DAP12 was first described by Kleinberger et al. 2014. In analogy a TREM-2/DAP12 chimeric receptor expressing cell line was produced according to standard cell culture procedures. CHO cells were sequentially transfected with eukaryotic expression vectors for human DAP12 (hDAP12) and human TREM2 (hTREM2). Resulting CHO-hTREM2/hDAP12 double transfected cells (CHO-hTREM2) were grown in DMEM/F12 medium supplemented with 10% fetal bovine serum 0.2 mg/ml G418 and 0.2 mg/mL hygromycin. Confluent adherent CHO cells were harvested after treatment with cell dissociation buffer (Gibco 13151-014) and cell surface TREM2 was quantified by flow cytometry as described below. […]
TREM2 SOMAmers were tested for their ability to stabilize or increase cell surface human TREM2, e.g., by modulating homeostatic dynamics of shedding or internalization. […] Cells were then assessed for surface human TREM2 by flow cytometry.

[2] = target: T2, cell surface human TREM2 on primary human M2a macrophages (Homo sapiens, UniProt Q9NZC2); assay: TREM2 surface stabilization by SOMAmers on primary human M2a macrophages (flow cytometry); assay type: cell-based; settings: 37° C. for 3 hours
T2 construct: Human M2a macrophages were generated from monocytes isolated from buffy coats; endogenous in cells; host or cells: primary human M2a macrophages differentiated from buffy-coat monocytes (MCSF + IL4)
T2 sequence (Q9NZC2 19-230): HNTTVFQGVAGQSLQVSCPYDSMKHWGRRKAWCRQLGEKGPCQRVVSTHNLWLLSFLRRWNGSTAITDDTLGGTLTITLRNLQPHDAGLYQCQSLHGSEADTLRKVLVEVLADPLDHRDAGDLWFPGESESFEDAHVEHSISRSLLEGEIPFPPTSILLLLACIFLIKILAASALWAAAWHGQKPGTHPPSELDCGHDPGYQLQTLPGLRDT
Procedure: Human M2a macrophages were generated from monocytes isolated from buffy coats by negative selection. M2a macrophages were generated by 5-6 days differentiation of monocytes in RPMI (supplemented 10% fetal bovine serum, and typical concentrations of Glutamax, Sodium pyruvate, Non Essential Amino Acids, HEPES) with MCSF 40 ng/mL (R&D) and 50 ng/mL IL4 (R&D). M2a macrophages were harvested with cell dissociation buffer (Gibco 13151-014) and cell surface TREM2 was assessed by flow cytometry as described below.
Cells were stained for TREM2 surface expression in FACS buffer (PBS, containing 10% heat-inactivated human serum AB male (Invitromex), 0.05% w/v sodium azide, 5 mM EDTA, 1 mg/mL Privigen (Mg) in PBS using goat anti-human TREM2 (R&D) or an appropriate isotype control. Cells were counterstained with F(ab)′2 fragments of an rabbit anti-goat IgG polyclonal antibody conjugated with Alexa488 (LifeTechnologies). All stainings were performed on ice for 30 min Cells were assessed for TREM2 surface expression on a BD LSR Fortessa or a FacsCalibur flow cytometer. Median fluorescence intensities corresponding to the degree of anti-TREM2 bound to cells were evaluated using FlowJo (Millipore INC)
TREM2 SOMAmers were tested for their ability to stabilize or increase cell surface human TREM2, e.g., by modulating homeostatic dynamics of shedding or internalization. […]

[3] = target: T1, cell surface human TREM2 on CHO-hTREM2 cells; assay: Binding of biotinylated SOMAmers to cellular TREM2 by flow cytometry; assay type: cell-based; settings: CHO-hTREM2 vs CHO control cells; on ice; streptavidin-APC detection
Procedure: A HEK cell line stably expressing a chimeric receptor consisting of TREM2-extracellular domain and DAP12 was first described by Kleinberger et al. 2014. In analogy a TREM-2/DAP12 chimeric receptor expressing cell line was produced according to standard cell culture procedures. CHO cells were sequentially transfected with eukaryotic expression vectors for human DAP12 (hDAP12) and human TREM2 (hTREM2). Resulting CHO-hTREM2/hDAP12 double transfected cells (CHO-hTREM2) were grown in DMEM/F12 medium supplemented with 10% fetal bovine serum 0.2 mg/ml G418 and 0.2 mg/mL hygromycin. Confluent adherent CHO cells were harvested after treatment with cell dissociation buffer (Gibco 13151-014) and cell surface TREM2 was quantified by flow cytometry as described below.
Binding of SOMAmers to cellular TREM2 was assessed by incubation of biotinylated SOMAmers at various concentrations with CHO-hTREM2 cells. In this case binding of SOMAmers to cell surface TREM2 was done on ice for 20-30 min to prevent modulation of cell surface TREM2. […] Cells were thereafter washed with FACS buffer and bound biotinylated SOMAmers were detected via streptavidin-APC conjugate (Biolegend, Inc). Median fluorescence intensities corresponding to the degree of TREM2 SOMAmer bound to cells were acquired on a FacsCalibur flow cytometer and evaluated using FlowJo (Millipore INC).

[4] = target: T3, human TREM2 stalk region Peptide 78
T3 chain: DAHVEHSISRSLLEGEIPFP

[5] = target: T4, human TREM2 stalk region Peptide 80
T4 chain: ESESFEDAHVEH

[6] = target: T5, human TREM2 stalk region Peptide 76
T5 chain: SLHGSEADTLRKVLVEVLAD

[7] = target: T6, human TREM2 stalk region Peptide 77
T6 chain: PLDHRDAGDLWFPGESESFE

[8] = target: T7, human TREM2 stalk region Peptide 79
T7 chain: VEVLADPLDHRD

T1 sequence (O43914 22-113 partner, one chain of several): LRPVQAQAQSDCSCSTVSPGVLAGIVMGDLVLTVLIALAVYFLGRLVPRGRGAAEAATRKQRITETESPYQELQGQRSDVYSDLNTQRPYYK

## UX95-90BC: TREM2 SOMAmer (slow off-rate modified aptamer), core sequence SEQ ID NO: 12, P = NapdU modified dUTP residue (DNA CCCTCGAUCCGGUGGCGGAUCCUAAGUAUUGGCCCGGUCCGCCAAGAAGA; DNA, [NapdU] at 8, 13, 20, 23, 27, 29, 30, 38, backbone and methylation of C not given here; further chemistry not fully specified)
[1]
  cell surface human TREM2 level (stabilization): stabilized and increased cell surface human TREM-2

## KX86-94WC: TREM2 SOMAmer, core sequence SEQ ID NO: 13, P = NapdU modified dUTP residue (DNA CCCTCUGUCAACCUCCACACAGGCCUUUGAUGCAAGUAUACAGUGGAAGA; DNA, [NapdU] at 6, 8, 14, 26, 27, 28, 31, 37, 39, 44, backbone and methylation of C not given here; further chemistry not fully specified)
[2]
  cell surface human TREM2 level (stabilization): stabilized cell surface human TREM2
[1]
  cell surface human TREM2 level (stabilization): stabilized cell surface human TREM2

## EX83-95HC: control SOMAmer, core sequence SEQ ID NO: 14 (DNA CCCTCCCUAUCGCAAUGACACAUUGGGGUCUCGAGGUGCGCGAUCGAAGA; DNA, [NapdU] at 8, 10, 16, 23, 24, 29, 31, 37, 44, backbone and methylation of C not given here; further chemistry not fully specified)
[3]
  binding to cell surface human TREM2: did not bind to cell surface human TREM2

B1: Human TACE (ADAM-17) recombinant catalytic domain (protein)
chain: RADPDPMKNTCKLLVVADHRFYRYMGRGEESTTTNYLIELIDRVDDIYRNTSWDNAGFKGYGIQIEQIRILKSPQEVKPGEKHYNMAKSYPNEEKDAWDVKMLLEQFSFDIAEEASKVCLAHLFTYQDFDMGTLGLAYVGSPRANSHGGVCPKAYYSPVGKKNIYLNSGLTSTKNYGKTILTKEADLVTTHELGHNFGAEHDPDGLAECAPNEDQGGKYVMYPIAVSGDHENNKMFSNCSKQSIYKTIESKAQECFQERSNKV
[4]
  TACE cleavage of the Mca-labelled peptide (HPLC/HRMS): For Peptide 78, two main cleavage products by TACE were found: DAHVEH (termed X01, SEQ ID NO: 25) and SISRSLLEGEIPFP (termed X02, SEQ ID NO: 26)
[5]
  TACE cleavage of the Mca-labelled peptide (HPLC/HRMS): no TACE cleavages were observed for Peptides 76, 79, 77 and 80
[6]
  TACE cleavage of the Mca-labelled peptide (HPLC/HRMS): no TACE cleavages were observed for Peptides 76, 79, 77 and 80
[7]
  TACE cleavage of the Mca-labelled peptide (HPLC/HRMS): no TACE cleavages were observed for Peptides 76, 79, 77 and 80
[8]
  TACE cleavage of the Mca-labelled peptide (HPLC/HRMS): no TACE cleavages were observed for Peptides 76, 79, 77 and 80
